This assay concerns the target FcRI on U937 cells (human) (UniProt P12314). Description: unlabeled protein competing with the same 125I-labeled protein for binding to IFN-γ-treated U937 cells.

Among the data in US20050196402A1 are IC50 values, retold here.

Chain of FcRI on U937 cells (human) (P12314 16-374): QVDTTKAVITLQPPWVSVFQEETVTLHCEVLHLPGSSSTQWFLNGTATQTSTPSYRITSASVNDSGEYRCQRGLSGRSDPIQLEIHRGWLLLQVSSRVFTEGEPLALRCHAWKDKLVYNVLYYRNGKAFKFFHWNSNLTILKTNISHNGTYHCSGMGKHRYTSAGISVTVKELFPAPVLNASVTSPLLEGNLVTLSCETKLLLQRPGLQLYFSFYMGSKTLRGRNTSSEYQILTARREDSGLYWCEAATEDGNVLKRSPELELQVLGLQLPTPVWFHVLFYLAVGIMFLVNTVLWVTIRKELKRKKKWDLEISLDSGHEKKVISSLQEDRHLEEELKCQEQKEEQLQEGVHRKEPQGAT

Regarding “hCTLA4-IgG1 (from UniProt P16410 37-161) (Fc fusion)”, the IC50 was found to be 0.07 µM.

As to human IgG1 (antibody), the IC50 amounted to 0.075 µM.
